Values quoted from earlier work, collected in publication PMC12287344.

Biological target: caspase-1 (Homo sapiens) (UniProt P29466)

- Kd: 110 µM
Substance: caspase-1 (from UniProt P29466)
